Experimental data as given in patent US20120220489A1.

Assays:
[1] = molecular target: ERK1 (p42) active (phospho), human, Active Motif 31 152 (human) (UniProt P27361); experiment: RPA, normal assay
[2] = molecular target: ERK1 (p44) active (GST tagged), human, Invitrogen PV 3311 (human) (UniProt P27361); experiment: RPA, normal assay
[3] = molecular target: ERK1 (p44) inactive (GST tagged), human, Invitrogen PV 3312 (human) (UniProt P27361); experiment: RPA, normal assay
[4] = molecular target: ERK1 (p44), human, Cell Signaling Technology 7416 (human) (UniProt P27361); experiment: RPA, normal assay
[5] = molecular target: ERK2 (p42), human, Biosource PHO 0104 (human) (UniProt P28482); experiment: RPA, normal assay
[6] = molecular target: Erk1-BSA 2.7x peptide-protein conjugate (human; bovine); experiment: RPA, normal assay
[7] = molecular target: Histone H3 recombinant protein, calf, Roche 11 034 758 001 (calf) (UniProt P68432); experiment: RPA, normal assay
[8] = molecular target: Histone H3 recombinant protein, human, Upstate 14-494 (human) (UniProt P68431); experiment: RPA, normal assay
[9] = molecular target: Histone H3-BSA 2.7x peptide-protein conjugate (bovine); experiment: RPA, normal assay
[10] = molecular target: pRb recombinant protein, human, Active Motif 31 128 (human) (UniProt P06400); experiment: RPA, normal assay
[11] = molecular target: pRb-BSA 1x peptide-protein conjugate (bovine); experiment: RPA, normal assay
[12] = molecular target: ERK1 (p44) active (GST tagged), human, Invitrogen PV 3311 (human) (UniProt P27361); experiment: RPA standard curves, mean of duplicate assays
[13] = molecular target: ERK1 (p44) active (GST tagged), human, Invitrogen PV 3311 (human) (UniProt P27361); experiment: RPA standard curve, assay 1, LOD back-calculated from one-site fit
[14] = molecular target: ERK1 (p44) active (GST tagged), human, Invitrogen PV 3311 (human) (UniProt P27361); experiment: RPA standard curve, assay 2, LOD back-calculated from one-site fit
[15] = molecular target: ERK1 (p42) active (phospho), human, Active Motif 31 152 (human) (UniProt P27361); experiment: RPA, competition: +recombinant protein 10 nM (not named)
[16] = molecular target: ERK1 (p44) active (GST tagged), human, Invitrogen PV 3311 (human) (UniProt P27361); experiment: as above
[17] = molecular target: ERK1 (p44) inactive (GST tagged), human, Invitrogen PV 3312 (human) (UniProt P27361); experiment: as above
[18] = molecular target: ERK1 (p44), human, Cell Signaling Technology 7416 (human) (UniProt P27361); experiment: as above
[19] = molecular target: ERK2 (p42), human, Biosource PHO 0104 (human) (UniProt P28482); experiment: as above
[20] = molecular target: Erk1-BSA 2.7x peptide-protein conjugate (human; bovine); experiment: as above
[21] = molecular target: Histone H3 recombinant protein, calf, Roche 11 034 758 001 (calf) (UniProt P68432); experiment: as above
[22] = molecular target: Histone H3 recombinant protein, human, Upstate 14-494 (human) (UniProt P68431); experiment: as above
[23] = molecular target: Histone H3-BSA 2.7x peptide-protein conjugate (bovine); experiment: as above
[24] = molecular target: pErk1/2-BSA 2.7x peptide-protein conjugate (human; bovine); experiment: as above
[25] = molecular target: pRb recombinant protein, human, Active Motif 31 128 (human) (UniProt P06400); experiment: as above
[26] = molecular target: pRb-BSA 1x peptide-protein conjugate (bovine); experiment: as above
[27] = molecular target: ERK1 (p42) active (phospho), human, Active Motif 31 152 (human) (UniProt P27361); experiment: RPA, competition: +recombinant protein 100 nM (not named)
[28] = molecular target: ERK1 (p44) active (GST tagged), human, Invitrogen PV 3311 (human) (UniProt P27361); experiment: as above
[29] = molecular target: ERK1 (p44) inactive (GST tagged), human, Invitrogen PV 3312 (human) (UniProt P27361); experiment: as above
[30] = molecular target: ERK1 (p44), human, Cell Signaling Technology 7416 (human) (UniProt P27361); experiment: as above
[31] = molecular target: ERK2 (p42), human, Biosource PHO 0104 (human) (UniProt P28482); experiment: as above
[32] = molecular target: Erk1-BSA 2.7x peptide-protein conjugate (human; bovine); experiment: as above
[33] = molecular target: Histone H3 recombinant protein, calf, Roche 11 034 758 001 (calf) (UniProt P68432); experiment: as above
[34] = molecular target: Histone H3 recombinant protein, human, Upstate 14-494 (human) (UniProt P68431); experiment: as above
[35] = molecular target: Histone H3-BSA 2.7x peptide-protein conjugate (bovine); experiment: as above
[36] = molecular target: pErk1/2-BSA 2.7x peptide-protein conjugate (human; bovine); experiment: as above
[37] = molecular target: pRb recombinant protein, human, Active Motif 31 128 (human) (UniProt P06400); experiment: as above
[38] = molecular target: pRb-BSA 1x peptide-protein conjugate (bovine); experiment: as above

Chain of UniProt P06400 (P06400 whole entry): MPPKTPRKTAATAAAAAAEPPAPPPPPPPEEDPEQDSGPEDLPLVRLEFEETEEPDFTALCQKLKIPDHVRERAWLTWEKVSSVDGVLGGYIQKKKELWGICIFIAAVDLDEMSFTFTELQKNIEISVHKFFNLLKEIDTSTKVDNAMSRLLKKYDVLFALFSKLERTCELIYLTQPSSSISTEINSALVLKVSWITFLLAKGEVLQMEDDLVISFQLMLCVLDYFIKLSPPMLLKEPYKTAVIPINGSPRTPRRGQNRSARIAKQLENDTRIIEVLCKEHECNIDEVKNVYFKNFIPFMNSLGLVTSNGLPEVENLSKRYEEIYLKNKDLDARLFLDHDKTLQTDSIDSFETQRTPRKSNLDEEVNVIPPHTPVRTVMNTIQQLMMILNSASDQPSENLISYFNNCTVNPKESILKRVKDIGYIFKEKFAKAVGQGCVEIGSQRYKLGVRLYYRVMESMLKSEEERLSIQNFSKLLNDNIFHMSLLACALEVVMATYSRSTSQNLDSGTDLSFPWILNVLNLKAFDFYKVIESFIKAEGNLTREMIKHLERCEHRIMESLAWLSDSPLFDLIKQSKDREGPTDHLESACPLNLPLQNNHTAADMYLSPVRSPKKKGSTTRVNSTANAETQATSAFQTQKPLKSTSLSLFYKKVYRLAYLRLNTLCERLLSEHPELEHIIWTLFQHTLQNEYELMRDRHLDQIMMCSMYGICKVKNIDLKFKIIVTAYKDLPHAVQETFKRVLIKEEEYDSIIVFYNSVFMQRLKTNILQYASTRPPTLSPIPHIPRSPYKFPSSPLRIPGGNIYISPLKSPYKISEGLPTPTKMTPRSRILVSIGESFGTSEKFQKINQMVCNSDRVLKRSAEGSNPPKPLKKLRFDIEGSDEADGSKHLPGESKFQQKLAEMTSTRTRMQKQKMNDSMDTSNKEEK
Chain of UniProt P28482 (P28482 2-360 limits assumed): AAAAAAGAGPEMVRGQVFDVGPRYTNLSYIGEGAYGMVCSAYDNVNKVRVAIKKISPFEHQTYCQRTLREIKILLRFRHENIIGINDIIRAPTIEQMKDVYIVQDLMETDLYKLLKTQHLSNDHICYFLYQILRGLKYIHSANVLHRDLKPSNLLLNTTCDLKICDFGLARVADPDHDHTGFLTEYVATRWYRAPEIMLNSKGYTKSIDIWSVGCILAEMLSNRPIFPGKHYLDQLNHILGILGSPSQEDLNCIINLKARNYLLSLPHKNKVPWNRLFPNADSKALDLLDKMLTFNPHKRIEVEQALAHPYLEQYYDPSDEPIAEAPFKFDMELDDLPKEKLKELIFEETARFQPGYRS
Chain of pRb-BSA 1x peptide-protein conjugate (bovine) (P02769 25-607 limits assumed): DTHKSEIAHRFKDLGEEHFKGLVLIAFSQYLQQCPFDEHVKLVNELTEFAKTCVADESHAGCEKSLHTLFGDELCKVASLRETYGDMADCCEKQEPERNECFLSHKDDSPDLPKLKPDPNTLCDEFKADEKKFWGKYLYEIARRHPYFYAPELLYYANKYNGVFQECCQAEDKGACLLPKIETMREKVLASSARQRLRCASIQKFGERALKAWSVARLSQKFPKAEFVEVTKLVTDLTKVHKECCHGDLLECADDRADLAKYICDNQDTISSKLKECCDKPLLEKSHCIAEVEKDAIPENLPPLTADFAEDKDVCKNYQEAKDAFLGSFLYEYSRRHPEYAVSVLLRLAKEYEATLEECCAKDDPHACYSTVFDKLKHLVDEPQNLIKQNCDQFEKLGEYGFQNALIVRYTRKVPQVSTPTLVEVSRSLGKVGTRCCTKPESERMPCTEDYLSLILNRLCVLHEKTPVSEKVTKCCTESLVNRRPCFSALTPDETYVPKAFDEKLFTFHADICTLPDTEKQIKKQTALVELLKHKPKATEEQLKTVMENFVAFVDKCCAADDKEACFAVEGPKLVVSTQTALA
Chain of pErk1/2-BSA 2.7x peptide-protein conjugate (human; bovine) (P02769 25-607 limits assumed): as above
Chain of Histone H3-BSA 2.7x peptide-protein conjugate (bovine) (P02769 25-607 limits assumed): as above
Chain of Erk1-BSA 2.7x peptide-protein conjugate (human; bovine) (peptide, as listed by the source limits assumed, chain 1 of 2): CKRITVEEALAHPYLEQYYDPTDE
Chain of Erk1-BSA 2.7x peptide-protein conjugate (human; bovine) (P02769 25-607 limits assumed, chain 2 of 2): as the sequence (P02769 25-607 limits assumed) above

| Substance | maximum standard curve signal [1] [RFI] | maximum standard curve signal [2] [RFI] | maximum standard curve signal [3] [RFI] | maximum standard curve signal [4] [RFI] | maximum standard curve signal [5] [RFI] | maximum standard curve signal [6] [RFI] | maximum standard curve signal [7] [RFI] | maximum standard curve signal [8] [RFI] | maximum standard curve signal [9] [RFI] | maximum standard curve signal [10] [RFI] | maximum standard curve signal [11] [RFI] | mean LOD [12] [nM] | LOD [13] [nM] | LOD [14] [nM] | maximum standard curve signal [15] [RFI] | maximum standard curve signal [16] [RFI] | maximum standard curve signal [17] [RFI] | maximum standard curve signal [18] [RFI] | maximum standard curve signal [19] [RFI] | maximum standard curve signal [20] [RFI] | further results |
| --- | --- | --- | --- | --- | --- | --- | --- | --- | --- | --- | --- | --- | --- | --- | --- | --- | --- | --- | --- | --- | --- |
| p44/42 MAPK phospho (pERK1/2) Thr202/Tyr204 antibody, Cell Signaling Technology #9101 | 0.19 | 1.66 | 0.23 | 0.04 | 0.01 | 0.02 | 0.01 | 0.01 | 0.11 | 0.01 | 0.01 | 0.055 | 0.058 | 0.052 | – | – | – | – | – | – | – |
| p44/42 MAPK (Erk1/2) antibody, Biosource 44-654G | 1.17 | 10.4 | 10.9 | 0.28 | 3.57 | 8.24 | 0.02 | – | 0.04 | 0.02 | 0.03 | 0.044 | 0.04 | 0.047 | 0.31 | 3.88 | 5.17 | 0.15 | 0.9 | 7.88 | maximum standard curve signal [21]: 0.07 RFI; maximum standard curve signal [22]: 0.09 RFI; maximum standard curve signal [23]: 0.13 RFI; maximum standard curve signal [24]: 0.08 RFI; maximum standard curve signal [25]: 0.11 RFI; maximum standard curve signal [26]: 0.1 RFI; maximum standard curve signal [27]: 0.15 RFI; maximum standard curve signal [28]: 0.32 RFI; maximum standard curve signal [29]: 0.38 RFI; maximum standard curve signal [30]: 0.16 RFI; maximum standard curve signal [31]: 0.18 RFI; maximum standard curve signal [32]: 5.69 RFI; maximum standard curve signal [33]: 0.15 RFI; maximum standard curve signal [34]: 0.16 RFI; maximum standard curve signal [35]: 0.22 RFI; maximum standard curve signal [36]: 0.14 RFI; maximum standard curve signal [37]: 0.17 RFI; maximum standard curve signal [38]: 0.16 RFI |
| Histone H3 antibody, Abcam ab1791 | – | – | 0.02 | – | – | 0.01 | 0.43 | 11.2 | 5.38 | – | – | – | – | – | 2.4 | 2.2 | 2.54 | 2.19 | 2.3 | 2.8 | maximum standard curve signal [21]: 2.5 RFI; maximum standard curve signal [22]: 3.16 RFI; maximum standard curve signal [23]: 3.93 RFI; maximum standard curve signal [24]: 2.57 RFI; maximum standard curve signal [25]: 2.77 RFI; maximum standard curve signal [26]: 2.57 RFI; maximum standard curve signal [27]: 1.87 RFI; maximum standard curve signal [28]: 1.37 RFI; maximum standard curve signal [29]: 1.32 RFI; maximum standard curve signal [30]: 1.8 RFI; maximum standard curve signal [31]: 1.56 RFI; maximum standard curve signal [32]: 1.42 RFI; maximum standard curve signal [33]: 2.56 RFI; maximum standard curve signal [34]: 2.09 RFI; maximum standard curve signal [35]: 1.68 RFI; maximum standard curve signal [36]: 1.81 RFI; maximum standard curve signal [37]: 2.28 RFI; maximum standard curve signal [38]: 2.46 RFI |
